Experimental data taken from paper PMC4824113.
Values joined by “and” are separate entries in the source; they are usually repeats but may differ in a detail not shown here. Equal entries are not always repeated.

Experiments:
[1] = target: TaXPD 100C-238C C (crosslinked) (Thermoplasma acidophilum) (UniProt Q9HM14); assay: fluorescence anisotropy; conditions: Anisotropy: 20 mM MES pH 6.4, 1 mM DTT, 1 mM MgCl2, 100 nM DNA, +/- 1 mM AMPPNP, temperature not stated; trapping: 20 mM Tris-HCl pH 8.3-8.5, 50 mM NaCl, 4 C …
[2] = target: TaXPD 107C-312C C (crosslinked) (Thermoplasma acidophilum) (UniProt Q9HM14); assay: fluorescence anisotropy; conditions: Anisotropy: 20 mM MES pH 6.4, 1 mM DTT, 1 mM MgCl2, 100 nM DNA, +/- 1 mM AMPPNP, temperature not stated; trapping: 20 mM Tris-HCl pH 8.3-8.5, 50 mM NaCl, 4 C …

TACGACAGAGAAGAGACGAGCATTTTTGCTCGGAAGGA [3'-fluorescein hairpin DNA with 5' overhang]
Kd [1]: 600 nM and 500 nM | Kd [2]: 300 nM and 400 nM
